From paper doi:10.1101/2020.03.30.016154 (bioRxiv, 2020)

Molecular target: the molecule itself
Experiment: cryo-EM structure

B1: full-length mouse serotonin (3A) receptor (5-HT3AR) (receptor, UniProt P23979-2 24-483, looked up)
chain: SRRRATQARDTTQPALLRLSDHLLANYKKGVRPVRDWRKPTTVSIDVIMYAILNVDEKNQVLTTYIWYRQYWTDEFLQWTPEDFDNVTKLSIPTDSIWVPDILINEFVDVGKSPNIPYVYVHHRGEVQNYKPLQLVTACSLDIYNFPFDVQNCSLTFTSWLHTIQDINITLWRSPEEVRSDKSIFINQGEWELLEVFPQFKEFSIDISNSYAEMKFYVIIRRRPLFYAVSLLLPSIFLMVVDIVGFCLPPDSGERVSFKITLLLGYSVFLIIVSDTLPATAIGTPLIGVYFVVCMALLVISLAETIFIVRLVHKQDLQRPVPDWLRHLVLDRIAWILCLGEQPMAHRPPATFQANKTDDCSAMGNHCSHVGGPQDLEKTPRGRGSPLPPPREASLAVRGLLQELSSIRHFLEKRDEMREVARDWLRVGYVLDRLLFRIYLLAVLAYSITLVTLWSIWHYS
stoichiometry N: 5
